{"source": "patent US20100113557A1", "about": "(ST MARIANNA UNIVERSITY SCHOOL OF MEDICINE, published 2010)", "binders": {"B1": {"name": "BRCA1 (endogenous) (other, UniProt P38398 1-1863, looked up)", "chain": "MDLSALRVEEVQNVINAMQKILECPICLELIKEPVSTKCDHIFCKFCMLKLLNQKKGPSQCPLCKNDITKRSLQESTRFSQLVEELLKIICAFQLDTGLEYANSYNFAKKENNSPEHLKDEVSIIQSMGYRNRAKRLLQSEPENPSLQETSLSVQLSNLGTVRTLRTKQRIQPQKTSVYIELGSDSSEDTVNKATYCSVGDQELLQITPQGTRDEISLDSAKKAACEFSETDVTNTEHHQPSNNDLNTTEKRAAERHPEKYQGSSVSNLHVEPCGTNTHASSLQHENSSLLLTKDRMNVEKAEFCNKSKQPGLARSQHNRWAGSKETCNDRRTPSTEKKVDLNADPLCERKEWNKQKLPCSENPRDTEDVPWITLNSSIQKVNEWFSRSDELLGSDDSHDGESESNAKVADVLDVLNEVDEYSGSSEKIDLLASDPHEALICKSERVHSKSVESNIEDKIFGKTYRKKASLPNLSHVTENLIIGAFVTEPQIIQERPLTNKLKRKRRPTSGLHPEDFIKKADLAVQKTPEMINQGTNQTEQNGQVMNITNSGHENKTKGDSIQNEKNPNPIESLEKESAFKTKAEPISSSISNMELELNIHNSKAPKKNRLRRKSSTRHIHALELVVSRNLSPPNCTELQIDSCSSSEEIKKKKYNQMPVRHSRNLQLMEGKEPATGAKKSNKPNEQTSKRHDSDTFPELKLTNAPGSFTKCSNTSELKEFVNPSLPREEKEEKLETVKVSNNAEDPKDLMLSGERVLQTERSVESSSISLVPGTDYGTQESISLLEVSTLGKAKTEPNKCVSQCAAFENPKGLIHGCSKDNRNDTEGFKYPLGHEVNHSRETSIEMEESELDAQYLQNTFKVSKRQSFAPFSNPGNAEEECATFSAHSGSLKKQSPKVTFECEQKEENQGKNESNIKPVQTVNITAGFPVVGQKDKPVDNAKCSIKGGSRFCLSSQFRGNETGLITPNKHGLLQNPYRIPPLFPIKSFVKTKCKKNLLEENFEEHSMSPEREMGNENIPSTVSTISRNNIRENVFKEASSSNINEVGSSTNEVGSSINEIGSSDENIQAELGRNRGPKLNAMLRLGVLQPEVYKQSLPGSNCKHPEIKKQEYEEVVQTVNTDFSPYLISDNLEQPMGSSHASQVCSETPDDLLDDGEIKEDTSFAENDIKESSAVFSKSVQKGELSRSPSPFTHTHLAQGYRRGAKKLESSEENLSSEDEELPCFQHLLFGKVNNIPSQSTRHSTVATECLSKNTEENLLSLKNSLNDCSNQVILAKASQEHHLSEETKCSASLFSSQCSELEDLTANTNTQDPFLIGSSKQMRHQSESQGVGLSDKELVSDDEERGTGLEENNQEEQSMDSNLGEAASGCESETSVSEDCSGLSSQSDILTTQQRDTMQHNLIKLQQEMAELEAVLEQHGSQPSNSYPSIISDSSALEDLRNPEQSTSEKAVLTSQKSSEYPISQNPEGLSADKFEVSADSSTSKNKEPGVERSSPSKCPSLDDRWYMHSCSGSLQNRNYPSQEELIKVVDVEEQQLEESGPHDLTETSYLPRQDLEGTPYLESGISLFSDDPESDPSEDRAPESARVGNIPSSTSALKVPQLKVAESAQSPAAAHTTDTAGYNAMEESVSREKPELTASTERVNKRMSMVVSGLTPEEFMLVYKFARKHHITLTNLITEETTHVVMKTDAEFVCERTLKYFLGIAGGKWVVSYFWVTQSIKERKMLNEHDFEVRGDVVNGRNHQGPKRARESQDRKIFRGLEICCYGPFTNMPTDQLEWMVQLCGASVVKELSSFTLGTGVHPIVVVQPDAWTEDNGFHAIGQMCEAPVVTREWVLDSVALYQCQELDTYLIPQIPHSHY", "notes": "Endogenous protein, precipitated from cell lysate with an anti-BRCA1 antibody; also called endogenous BRCA1"}}, "target": "T1, HERC2 (hect domain and RCC-like domain 2) (human, UniProt O95714 1-4834)", "T1 construct": "Endogenous protein of 293T or HeLa cells, found in BRCA1 immune precipitates from cell lysates; also called endogenous HERC2", "T1 sequence (O95714 other isoform, or with tags, fused parts or gaps limits assumed)": "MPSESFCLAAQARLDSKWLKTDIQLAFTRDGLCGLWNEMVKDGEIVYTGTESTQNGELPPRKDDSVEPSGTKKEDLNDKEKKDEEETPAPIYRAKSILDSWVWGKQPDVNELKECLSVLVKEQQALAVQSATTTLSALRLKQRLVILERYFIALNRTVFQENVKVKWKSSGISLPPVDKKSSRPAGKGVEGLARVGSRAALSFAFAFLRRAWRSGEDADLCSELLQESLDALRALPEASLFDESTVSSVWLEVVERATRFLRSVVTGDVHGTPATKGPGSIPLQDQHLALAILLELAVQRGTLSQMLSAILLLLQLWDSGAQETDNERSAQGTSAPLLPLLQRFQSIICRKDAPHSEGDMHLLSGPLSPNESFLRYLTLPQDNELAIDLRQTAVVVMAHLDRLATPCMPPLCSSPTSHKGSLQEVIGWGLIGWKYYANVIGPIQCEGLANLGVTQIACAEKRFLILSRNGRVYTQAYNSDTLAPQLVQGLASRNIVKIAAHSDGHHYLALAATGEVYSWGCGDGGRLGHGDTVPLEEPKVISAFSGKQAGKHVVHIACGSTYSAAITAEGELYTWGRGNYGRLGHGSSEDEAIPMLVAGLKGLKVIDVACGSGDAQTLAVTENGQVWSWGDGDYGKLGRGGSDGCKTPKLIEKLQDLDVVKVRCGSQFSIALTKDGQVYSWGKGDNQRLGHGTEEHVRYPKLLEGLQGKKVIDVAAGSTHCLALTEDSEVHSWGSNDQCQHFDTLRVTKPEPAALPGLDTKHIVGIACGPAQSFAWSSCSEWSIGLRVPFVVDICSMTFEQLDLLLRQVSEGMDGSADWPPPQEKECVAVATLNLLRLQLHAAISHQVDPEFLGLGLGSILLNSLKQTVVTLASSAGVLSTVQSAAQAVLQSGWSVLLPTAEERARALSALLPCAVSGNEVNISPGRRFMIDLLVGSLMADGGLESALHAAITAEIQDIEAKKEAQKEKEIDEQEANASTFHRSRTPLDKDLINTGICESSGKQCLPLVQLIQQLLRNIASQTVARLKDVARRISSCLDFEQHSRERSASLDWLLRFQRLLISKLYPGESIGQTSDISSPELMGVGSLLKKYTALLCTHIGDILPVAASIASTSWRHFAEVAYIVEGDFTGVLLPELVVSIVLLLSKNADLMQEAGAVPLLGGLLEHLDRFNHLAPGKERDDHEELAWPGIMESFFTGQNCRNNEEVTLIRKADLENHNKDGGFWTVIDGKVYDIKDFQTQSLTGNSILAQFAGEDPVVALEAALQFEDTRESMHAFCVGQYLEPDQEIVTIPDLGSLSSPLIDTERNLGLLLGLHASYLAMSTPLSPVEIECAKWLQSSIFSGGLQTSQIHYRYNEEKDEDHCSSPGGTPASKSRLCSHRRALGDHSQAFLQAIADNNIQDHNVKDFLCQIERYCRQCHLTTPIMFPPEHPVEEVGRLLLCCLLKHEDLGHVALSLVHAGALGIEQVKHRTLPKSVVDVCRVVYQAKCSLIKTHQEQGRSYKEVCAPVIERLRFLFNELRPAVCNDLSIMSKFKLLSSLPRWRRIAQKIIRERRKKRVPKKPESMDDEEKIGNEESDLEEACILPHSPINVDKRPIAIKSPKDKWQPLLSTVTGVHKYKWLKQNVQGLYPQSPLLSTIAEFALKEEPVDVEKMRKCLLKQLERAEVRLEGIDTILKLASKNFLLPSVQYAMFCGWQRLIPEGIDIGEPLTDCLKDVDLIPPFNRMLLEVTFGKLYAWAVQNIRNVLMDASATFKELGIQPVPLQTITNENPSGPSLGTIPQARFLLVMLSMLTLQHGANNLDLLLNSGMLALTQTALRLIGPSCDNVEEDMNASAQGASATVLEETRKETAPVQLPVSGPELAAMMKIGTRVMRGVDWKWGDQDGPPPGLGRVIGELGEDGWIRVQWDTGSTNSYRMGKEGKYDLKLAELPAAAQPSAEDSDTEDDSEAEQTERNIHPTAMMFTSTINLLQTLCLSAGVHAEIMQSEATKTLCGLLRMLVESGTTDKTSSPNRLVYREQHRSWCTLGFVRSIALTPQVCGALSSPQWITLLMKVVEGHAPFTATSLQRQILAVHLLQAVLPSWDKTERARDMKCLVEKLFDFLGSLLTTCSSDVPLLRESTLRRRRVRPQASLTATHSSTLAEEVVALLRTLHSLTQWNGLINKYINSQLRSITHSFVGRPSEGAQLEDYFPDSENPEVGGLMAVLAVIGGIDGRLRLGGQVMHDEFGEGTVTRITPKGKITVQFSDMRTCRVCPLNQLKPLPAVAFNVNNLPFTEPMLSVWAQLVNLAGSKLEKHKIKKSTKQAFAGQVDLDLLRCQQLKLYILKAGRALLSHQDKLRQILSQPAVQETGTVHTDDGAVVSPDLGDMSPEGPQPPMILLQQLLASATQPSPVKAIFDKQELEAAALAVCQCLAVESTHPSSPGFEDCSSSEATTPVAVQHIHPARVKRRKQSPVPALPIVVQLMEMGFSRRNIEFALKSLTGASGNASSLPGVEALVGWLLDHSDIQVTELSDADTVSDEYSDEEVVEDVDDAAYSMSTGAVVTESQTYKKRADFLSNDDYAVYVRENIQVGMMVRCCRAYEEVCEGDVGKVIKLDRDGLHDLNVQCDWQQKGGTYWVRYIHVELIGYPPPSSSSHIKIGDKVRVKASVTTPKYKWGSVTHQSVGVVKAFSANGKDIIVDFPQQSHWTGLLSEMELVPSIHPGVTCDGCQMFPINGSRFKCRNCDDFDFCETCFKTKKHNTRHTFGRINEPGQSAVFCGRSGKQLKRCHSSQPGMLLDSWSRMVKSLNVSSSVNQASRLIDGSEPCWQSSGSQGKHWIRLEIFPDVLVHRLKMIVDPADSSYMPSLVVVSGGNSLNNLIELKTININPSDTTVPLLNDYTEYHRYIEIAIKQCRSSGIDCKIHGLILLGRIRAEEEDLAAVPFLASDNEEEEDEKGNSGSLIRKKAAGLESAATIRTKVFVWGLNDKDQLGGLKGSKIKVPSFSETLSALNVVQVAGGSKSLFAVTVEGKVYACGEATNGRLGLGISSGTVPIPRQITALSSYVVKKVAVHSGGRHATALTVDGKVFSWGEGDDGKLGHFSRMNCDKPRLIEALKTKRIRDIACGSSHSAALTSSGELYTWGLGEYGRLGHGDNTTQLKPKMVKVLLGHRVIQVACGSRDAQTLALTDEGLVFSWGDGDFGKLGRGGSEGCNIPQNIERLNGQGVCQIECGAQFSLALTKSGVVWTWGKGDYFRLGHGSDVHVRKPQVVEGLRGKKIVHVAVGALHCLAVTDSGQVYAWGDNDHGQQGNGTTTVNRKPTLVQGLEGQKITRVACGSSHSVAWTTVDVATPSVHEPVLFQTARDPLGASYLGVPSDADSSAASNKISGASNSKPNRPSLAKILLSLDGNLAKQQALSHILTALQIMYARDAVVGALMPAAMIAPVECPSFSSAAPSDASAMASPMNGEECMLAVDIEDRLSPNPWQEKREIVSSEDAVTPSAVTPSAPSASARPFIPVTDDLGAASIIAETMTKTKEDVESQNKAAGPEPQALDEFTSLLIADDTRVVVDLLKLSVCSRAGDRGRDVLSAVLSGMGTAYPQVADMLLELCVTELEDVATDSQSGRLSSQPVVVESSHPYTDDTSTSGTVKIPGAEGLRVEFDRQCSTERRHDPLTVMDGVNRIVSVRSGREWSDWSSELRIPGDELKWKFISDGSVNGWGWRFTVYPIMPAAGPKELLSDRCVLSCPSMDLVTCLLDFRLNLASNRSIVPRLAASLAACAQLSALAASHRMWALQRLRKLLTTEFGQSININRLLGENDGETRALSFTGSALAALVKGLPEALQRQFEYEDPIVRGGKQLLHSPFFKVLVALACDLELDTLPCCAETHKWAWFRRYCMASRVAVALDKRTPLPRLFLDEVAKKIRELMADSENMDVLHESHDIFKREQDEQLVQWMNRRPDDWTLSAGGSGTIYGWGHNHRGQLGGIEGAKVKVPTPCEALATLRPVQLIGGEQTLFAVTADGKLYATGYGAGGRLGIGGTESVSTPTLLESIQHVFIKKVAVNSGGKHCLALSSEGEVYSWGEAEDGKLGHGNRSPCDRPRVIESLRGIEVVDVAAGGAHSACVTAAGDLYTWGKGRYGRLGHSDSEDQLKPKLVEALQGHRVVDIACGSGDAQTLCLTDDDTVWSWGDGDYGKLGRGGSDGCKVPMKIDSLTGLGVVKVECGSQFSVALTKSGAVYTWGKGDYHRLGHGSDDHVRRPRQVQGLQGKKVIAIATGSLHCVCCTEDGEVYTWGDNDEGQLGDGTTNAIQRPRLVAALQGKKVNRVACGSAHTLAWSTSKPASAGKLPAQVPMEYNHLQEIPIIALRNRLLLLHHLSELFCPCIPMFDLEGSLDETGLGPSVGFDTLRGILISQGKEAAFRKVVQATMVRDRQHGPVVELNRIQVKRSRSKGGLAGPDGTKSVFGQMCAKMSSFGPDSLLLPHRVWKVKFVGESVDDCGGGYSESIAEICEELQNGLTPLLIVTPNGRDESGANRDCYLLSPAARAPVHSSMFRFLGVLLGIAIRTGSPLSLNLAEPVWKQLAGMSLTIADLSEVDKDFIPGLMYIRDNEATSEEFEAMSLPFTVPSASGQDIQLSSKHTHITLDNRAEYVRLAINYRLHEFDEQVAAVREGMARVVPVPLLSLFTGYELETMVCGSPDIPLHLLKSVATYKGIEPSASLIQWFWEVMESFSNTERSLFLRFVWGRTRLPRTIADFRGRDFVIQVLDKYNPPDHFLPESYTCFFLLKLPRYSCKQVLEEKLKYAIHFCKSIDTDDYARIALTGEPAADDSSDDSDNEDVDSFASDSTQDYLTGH", "assay": "immunoprecipitation with anti-BRCA1 antibody, synchronized HeLa cells", "protocol": "For the immunoprecipitation of a BRCA1 complex, the cell lysate was allowed to react with an anti-BRCA1 antibody at 4° C. for 1 hour. Thereafter, a precipitation reaction was carried out at 4° C. for 1 hour using Protein A and G sepharose (Invitrogen). The precipitate was washed with a 0.5% NP-40 buffer 3 times, and it was then re-suspended in an SDS sample buffer (50 mM Tris-HCl (pH6.8), 0.2% bromophenol blue, 10% glycerol, 2% SDS, and 100 mM DTT). The suspension was boiled for 3 minutes. As a peptide competition control, an equal amount of blocking peptide was added."}
{"binder": "B1", "values": [{"measurement": "binding result", "value": "binds"}]}
